Data on five molecules can be found in patent publication US20240101677A1 (Innovent, published 2024).

Assay [1] deals with T1, CD16A on human primary NK cells (human, UniProt P08637 17-254).
T1 construct: whole, on cells; also called primary natural killer (NK) cells
Put plainly: flow cytometry (MFI, PE-anti-human Fc) on human primary NK cells, donor SLB190084. The procedure:
(§1) Human PBMC cells were thawed (Sailybio, SLB190084 & SLB190071), and NK cells were enriched and isolated using a human NK cell enrichment kit (Stemcell, 19055) and centrifuged at 400 g for 5 min. The supernatant was removed, and the cells were resuspended in PBS. After counting, the cells were adjusted to a density of 2×10⁶ cells/mL, and the cell suspension was added to a U-bottom 96-well plate at 100 μL/well. Then, the test antibody was added to make a final concentration of 100 nM, and subjected to a 6-fold dilution to obtain 10 gradients. The mixture was left to stand on ice for a reaction for 1 h. The mixture was centrifuged at 300 g for 5 min, and the supernatant was removed. The cells were washed once with PBS. The mixture was centrifuged at 300 g for 5 min, and PBS was removed. 100 μL of PE-anti-human Fc antibody (Southern Biotech, 2040-09) diluted at a ratio of 1:200 was added to each well. The mixture was incubated on ice for 30 min in the dark. The mixture was centrifuged at 400 g for 5 min, and the supernatant was removed. The cells were washed twice with PBS, and then resuspended in 100 μL of PBS. A fluorescence shift assay was performed by using a flow cytometer (BD, Facscelesta). […] The control antibody used in FIGS. 2A and 2B was the same as that in Example 5.
A general note: A flow cytometer gives signals particle by particle.

Assay [2] deals with T2, human CD16A (type 158V) on GS-CHO cells (human, UniProt P08637 17-254).
T2 construct: whole, on cells; also called GS-CHO cells expressing human CD16A
T2 sequence (P08637 17-254 F176V): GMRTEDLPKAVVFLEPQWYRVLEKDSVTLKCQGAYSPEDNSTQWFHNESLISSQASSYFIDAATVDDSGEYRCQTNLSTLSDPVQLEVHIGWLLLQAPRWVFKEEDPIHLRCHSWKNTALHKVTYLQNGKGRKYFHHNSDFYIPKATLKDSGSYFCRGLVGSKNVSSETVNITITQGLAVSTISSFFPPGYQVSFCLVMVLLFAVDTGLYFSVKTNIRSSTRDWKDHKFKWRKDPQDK
As to the kind of experiment: flow cytometry (MFI, PE-anti-human Fc) on GS-CHO cells expressing human CD16A (type 158V). The procedure:
After counting, the cells were adjusted to a density of 2×10⁶ cells/mL, and the cell suspension was added to a U-bottom 96-well plate at 100 μL/well. […] The mixture was centrifuged at 300 g for 5 min, and the supernatant was removed. The cells were washed once with PBS. The mixture was centrifuged at 300 g for 5 min, and PBS was removed. 100 μL of PE-anti-human Fc antibody (Southern Biotech, 2040-09) diluted at a ratio of 1:200 was added to each well. The mixture was incubated on ice for 30 min in the dark. The mixture was centrifuged at 400 g for 5 min, and the supernatant was removed. The cells were washed twice with PBS, and then resuspended in 100 μL of PBS. A fluorescence shift assay was performed by using a flow cytometer (BD, Facscelesta).

Assay [3] has as its target T1, CD16A on human primary NK cells. As to the kind of experiment: flow cytometry (MFI, PE-A) on human primary NK cells, donor SLB190071. The procedure: as §1
In this example, the binding of anti-CD16A/HER2 and anti-CD16A/BCMA bispecific antibodies (subjected to gradient dilution) of the present invention to primary NK cells was assayed by flow cytometry. The assay method was the same as that in Example 6.

T1 sequence (P08637 17-254): as the sequence (P08637 17-254 F176V) above, with V160F counted along it

B1: Isotype-IgG1-Fc-LALA (antibody)
variable region (heavy or light not stated; listed first): EVRLLESGGGLVQPGGSLRLSCAASGFTFSNYAMGWVRQAPGKCLEWVSAISGSGGSTYYADSVKGRFTTSRDDSKNALYLQMNSLRAEDTAVYYCARGGPGWYAADVWGQGTTVTVSS
variable region (heavy or light not stated; listed second): DIQMTQSPSSLSASVGDRVTITCRASQSISSYLNWYQQKPGKAPKLLIYAASSLQSGVPSRFSGSGSGTDFTLTISSLQPEDFATYYCQQADLPAFAFGCGTKVEIK
notes: also called anti-Hen Egg Lysozyme (HEL) antibody; negative control
Regarding B1, the binding result in assay [1] is reported as “no binding (tested: log 2 (100 nM))”; in assay [2] it was “no binding (tested: log 2.8 (about 600 nM))”.

B2: 16A067 (bispecific antibody, human IgG1, kappa, L234A L235A)
heavy 1: not shown
heavy 2: EVQLVESGGGLVQPGRSLRLSCAASGFTFGDYAIHWVRQAPGKGLEWVSGISWDSSSIAYADSVKGRFTISRDNAKNSLYLQMNSLRAEDTAVYYCAKDSPVRDSFGSIAFDIWGQGTMVTVSSASTKGPSVFPLAPSSKSTSGGTAALGCLVKDYFPEPVTVSWNSGALTSGVHTFPAVLQSSGLYSLSSVVTVPSSSLGTQTYICNVNHKPSNTKVDKKVEPKSCDKTHTCPPCPAPEAAGGPSVFLFPPKPKDTLMISRTPEVTCVVVDVSHEDPEVKFNWYVDGVEVHNAKTKPREEQYNSTYRVVSVLTVLHQDWLNGKEYKCKVSNKALPAPIEKTISKAKGQPREPQVCTLPPSRDELTKNQVSLSCAVKGFYPSDIAVEWESNGQPENNYKTTPPVLDSDGSFFLVSKLTVDKSRWQQGNVFSCSVMHEALHNHYTQKSLSLSPGK
light: not shown
notes: 1+1 knob-into-hole format, sdAb-Fc arm and Fab-Fc arm, LALA; also called anti-CD16A/BCMA bispecific antibody (Y88A3 x ADI384-56)
What is called EC50 is the concentration at which the effect is half-maximal. Read a high EC50 as a need for much substance. Consider B2, for which the EC50 in assay [3] was found to be 14.2 nM. This lies in the double-digit nanomolar range.

B3: 16A069 (bispecific antibody, human IgG1, kappa, L234A L235A)
heavy 1: not shown
heavy 2: B2 heavy 2
light: not shown
notes: 1+1 knob-into-hole format, sdAb-Fc arm and Fab-Fc arm, LALA; also called anti-CD16A/BCMA bispecific antibody (Y100D6 x ADI384-56)
With B3, a half-maximal response in assay [3] (EC50) required 15.3 nM.

B4: 16A068 (bispecific antibody, human IgG1, kappa, L234A L235A)
heavy 1: not shown
heavy 2: B2 heavy 2
light: not shown
notes: 1+1 knob-into-hole format, sdAb-Fc arm and Fab-Fc arm, LALA; also called anti-CD16A/BCMA bispecific antibody (Y99F6 x ADI384-56)
In assay [3], B4 showed a 50% effective concentration (EC50) of 50.5 nM. This EC50 is about 3.3-fold higher than that of the molecule before.

B5: 16A070 (bispecific antibody, human IgG1, kappa, L234A L235A)
heavy 1: not shown
heavy 2: B2 heavy 2
light: not shown
notes: 1+1 knob-into-hole format, sdAb-Fc arm and Fab-Fc arm, LALA; also called anti-CD16A/BCMA bispecific antibody (Y95H1 x ADI384-56)
For B5, the concentration for a half-maximal effect (EC50) in assay [3] turned out to be 7.96 nM.
